Measured values published in article PMC10191836 (2023).

Target: T1, C-terminal region of human LTBP-1 (human, UniProt Q14766 1347-1721)
T1 chain: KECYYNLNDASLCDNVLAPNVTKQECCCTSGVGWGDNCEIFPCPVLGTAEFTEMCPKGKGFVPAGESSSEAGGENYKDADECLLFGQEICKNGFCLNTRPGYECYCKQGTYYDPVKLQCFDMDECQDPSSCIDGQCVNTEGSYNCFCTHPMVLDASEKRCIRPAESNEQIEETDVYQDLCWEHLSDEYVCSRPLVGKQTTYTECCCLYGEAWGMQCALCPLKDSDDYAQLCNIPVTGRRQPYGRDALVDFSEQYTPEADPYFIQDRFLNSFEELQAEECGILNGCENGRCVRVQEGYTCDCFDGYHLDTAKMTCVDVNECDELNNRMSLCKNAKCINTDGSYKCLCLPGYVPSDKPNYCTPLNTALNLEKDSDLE
Experiment: SPR

Binder	Kd
recombinant human fibrillin-1 N-terminal fragment PF3 with the WMS deletion (domains TB1–PRR–EGF4) (domain or fragment, Calcium bound to the cbEGF domains; disulfide bonded. The PF3 end is not printed: it is taken as the end of TB2 (722), because the paper's fragment boundaries are at 330 and 723. The WMS deletion TB1-PRR-EGF4 is taken as 330-489 from domain limits. The N-terminus is assumed to be processed at 44/45.) not shown	50.1 nM
recombinant human fibrillin-1 N-terminal fragment PF3 (domain or fragment) not shown	17.7 nM
